Here are results for three molecules from patent US20210253736A1 (published 2021).

Assay [1] addresses T1, Cyno FAP.
T1 chain: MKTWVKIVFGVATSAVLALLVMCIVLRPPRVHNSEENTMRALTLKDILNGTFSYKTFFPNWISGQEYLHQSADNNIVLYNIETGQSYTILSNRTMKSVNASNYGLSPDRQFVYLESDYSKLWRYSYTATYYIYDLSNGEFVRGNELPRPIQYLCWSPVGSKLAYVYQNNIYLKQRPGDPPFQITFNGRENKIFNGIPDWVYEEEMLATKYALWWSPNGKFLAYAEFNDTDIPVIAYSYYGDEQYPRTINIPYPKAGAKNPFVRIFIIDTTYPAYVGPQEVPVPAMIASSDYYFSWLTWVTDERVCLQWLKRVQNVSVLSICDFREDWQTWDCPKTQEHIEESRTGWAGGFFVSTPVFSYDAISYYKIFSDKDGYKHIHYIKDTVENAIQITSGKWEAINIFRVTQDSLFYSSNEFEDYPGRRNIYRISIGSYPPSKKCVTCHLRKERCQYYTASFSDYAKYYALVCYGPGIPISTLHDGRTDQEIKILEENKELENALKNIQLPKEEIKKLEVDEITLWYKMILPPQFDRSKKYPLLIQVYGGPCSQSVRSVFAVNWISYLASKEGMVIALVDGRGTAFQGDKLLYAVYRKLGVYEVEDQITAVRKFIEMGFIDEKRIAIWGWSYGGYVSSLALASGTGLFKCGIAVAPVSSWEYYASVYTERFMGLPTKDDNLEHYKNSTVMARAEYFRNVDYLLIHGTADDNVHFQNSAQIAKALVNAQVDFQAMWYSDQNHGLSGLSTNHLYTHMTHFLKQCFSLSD
Briefly: Octet. In general terms: In BLI a coated tip is dipped into the sample, and binding shifts an interference pattern.

The target in assay [2] is T2, His-tagged human FAP (human, UniProt Q12884 26-760). Nature of the assay: Octet.
The target of assay [3] is T1, Cyno FAP. Briefly: Octet; apparent KD.
Assay [4] concerns the target T2, His-tagged human FAP. Briefly: Octet; apparent KD.

B1: XENP23930 (29B11, bottle-opener) (antibody)
chain 1: EVQLLESGGGLVQPGGSLRLSCAASGFTFSSYAMSWVRQAPGKGLEWVSAIIGSGGITYYADSVKGRFTISRDNSKNTLYLQMNSLRAEDTAVYYCAKGWFGGFNYWGQGTLVTVSSASTKGPSVFPLAPSSKSTSGGTAALGCLVKDYFPEPVTVSWNSGALTSGVHTFPAVLQSSGLYSLSSVVTVPSSSLGTQTYICNVNHKPSDTKVDKKVEPKSCDKTHTCPPCPAPPVAGPSVFLFPPKPKDTLMISRTPEVTCVVVDVKHEDPEVKFNWYVDGVEVHNAKTKPREEEYNSTYRVVSVLTVLHQDWLNGKEYKCKVSNKALPAPIEKTISKAKGQPREPQVYTLPPSREEMTKNQVSLTCDVSGFYPSDIAVEWESDGQPENNYKTTPPVLDSDGSFFLYSKLTVDKSRWEQGDVFSCSVMHEALHNHYTQKSLSLSPGK
chain 2: not shown
chain 3: EIVLTQSPGTLSLSPGERATLSCRASQSVTSSYLAWYQQKPGQAPRLLINVGSRRATGIPDRFSGSGSGTDFTLTISRLEPEDFAVYYCQQGIMLPPTFGQGTKVEIKRTVAAPSVFIFPPSDEQLKSGTASVVCLLNNFYPREAKVQWKVDNALQSGNSQESVTEQDSKDSTYSLSSTLTLSKADYEKHKVYACEVTHQGLSSPVTKSFNRGEC
With B1, the Kd is 26.4 pM with Cyno FAP [1] and 4.82 pM with His-tagged human FAP [2].

B2: XENP23934 (3F2, bottle-opener) (antibody)
chain 1: not shown
chain 2: not shown
chain 3: EIVLTQSPGTLSLSPGERATLSCRASQSVTSSYLAWYQQKPGQAPRLLINVGSRRATGIPDRFSGSGSGTDFTLTISRLEPEDFAVYYCQQGIMLPPTFGQGTKVEIKRTVAAPSVFIFPPSDEQLKSGTASVVCLLNNFYPREAKVQWKVDNALQSGNSQESVTEQDSKDSTYSLSSTLTLSKADYEKHKVYACEVTHQGLSSPVTKSFNRGEC
As to B2, the Kd came to 3160 pM in the assay with Cyno FAP [1] and 5460 pM with His-tagged human FAP [2].

B3: XENP23932 (29B11, central-scFv) (antibody)
chain 1: EVQLLESGGGLVQPGGSLRLSCAASGFTFSSYAMSWVRQAPGKGLEWVSAIIGSGGITYYADSVKGRFTISRDNSKNTLYLQMNSLRAEDTAVYYCAKGWFGGFNYWGQGTLVTVSSASTKGPSVFPLAPSSKSTSGGTAALGCLVKDYFPEPVTVSWNSGALTSGVHTFPAVLQSSGLYSLSSVVTVPSSSLGTQTYICNVNHKPSDTKVDKKVEPKSCDKTHTCPPCPAPPVAGPSVFLFPPKPKDTLMISRTPEVTCVVVDVKHEDPEVKFNWYVDGVEVHNAKTKPREEEYNSTYRVVSVLTVLHQDWLNGKEYKCKVSNKALPAPIEKTISKAKGQPREPQVYTLPPSREEMTKNQVSLTCDVSGFYPSDIAVEWESDGQPENNYKTTPPVLDSDGSFFLYSKLTVDKSRWEQGDVFSCSVMHEALHNHYTQKSLSLSPGK
chain 2: EVQLLESGGGLVQPGGSLRLSCAASGFTFSSYAMSWVRQAPGKGLEWVSAIIGSGGITYYADSVKGRFTISRDNSKNTLYLQMNSLRAEDTAVYYCAKGWFGGFNYWGQGTLVTVSSASTKGPSVFPLAPSSKSTSGGTAALGCLVKDYFPEPVTVSWNSGALTSGVHTFPAVLQSSGLYSLSSVVTVPSSSLGTQTYICNVNHKPSNTKVDKKVEPKSCGGGGSGGGGSEVQLVESGGGLVQPGGSLRLSCAASGFTFSTYAMNWVRQAPGKGLEWVGRIRSKYNNYATYYADSVKGRFTISRDDSKNTLYLQMNSLRAEDTAVYYCVRHGNFGDSYVSWFAYWGQGTLVTVSSGKPGSGKPGSGKPGSGKPGSQAVVTQEPSLTVSPGGTVTLTCGSSTGAVTTSNYANWVQQKPGKSPRGLIGGTNKRAPGVPARFSGSLLGGKAALTISGAQPEDEADYYCALWYSNHWVFGGGTKLTVLGGGGSGGGGSKTHTCPPCPAPPVAGPSVFLFPPKPKDTLMISRTPEVTCVVVDVKHEDPEVKFNWYVDGVEVHNAKTKPREEQYNSTYRVVSVLTVLHQDWLNGKEYKCKVSNKALPAPIEKTISKAKGQPREPQVYTLPPSREQMTKNQVKLTCLVKGFYPSDIAVEWESNGQPENNYKTTPPVLDSDGSFFLYSKLTVDKSRWQQGNVFSCSVMHEALHNHYTQKSLSLSPGK
chain 3: EIVLTQSPGTLSLSPGERATLSCRASQSVTSSYLAWYQQKPGQAPRLLINVGSRRATGIPDRFSGSGSGTDFTLTISRLEPEDFAVYYCQQGIMLPPTFGQGTKVEIKRTVAAPSVFIFPPSDEQLKSGTASVVCLLNNFYPREAKVQWKVDNALQSGNSQESVTEQDSKDSTYSLSSTLTLSKADYEKHKVYACEVTHQGLSSPVTKSFNRGEC
As for B3, the Kd in the assay with Cyno FAP [3] was 22.9 pM; with His-tagged human FAP [4], < 1 pM.
